Source: the DeepSol protein solubility set

Test: soluble on expression in E. coli; label from the status in PepcDB or PDB records

Row | Sequence | soluble on expression in E. coli
1 | MNAAIHPRPAAERAPSYYAATLNEETDYPTLLGAVTVDIAIIGGGFTGVATAVELAERGYKVALVETHRIGWGASGRNGGQVTGSLSGDAAMHKQMRQWLGAEVEDFIWHLRWRGHEIIRQRVEKYGIACDLRHGHLHAAMKASHMGELQASYEEAVRRGMGDQVVLLDKAGVQAHLETELYCGALKNTRNMHLHPLNLCIGEARAAAGLGALIFEHSEVLDIVHGPRPAVITREGRIEAQQILLAGDVYHKLERRQLKGMIFPAMGGIVTTRPLGELAREINPQGLAVYDCRFVLDYYRPTADGRLLFGGGANYSGRDSRDITAELRPCIERTFPRLKGVEIEFQWSCAMGIVMNRIPQLGKLSDNVWYCQGYSGHGVATSHIMGEIMAKAMSGSLEQFDTFARCKHLRVPLGDLFGNPMLAAGMWYYQLMEKLRLEHHHHHH | not soluble
2 | MNADTADEEITKLLEFLIEQTKDAFEPMRALAVFESFGQLEEDPLDRKTYHYRFHQKIAPNMDSWNNYSIESRIRLMFALAGRVRDNFLESIQSQGTVELDEKNRICEYISNDGTLTLKGDHSDSARWARRITSTTNPTKSAAFAEKFMNFLVEKTKNVVEPVSVGGIYEEFSQIDGFGLSPAAYRTRFHINIVPEINEWNSYSIEERIRLLMALGALVPEDFLERIEAEGTVDLDEKGRILKYSSNDGNLNLDKRNIATANRRNSTAAHRKRSLDRDSESGSAKNARAVKSEPKSKPQSDLHYSSESDTDDVEFVESLPGKPKLEPIDYDYDQYFNRDVSYNNYDQEEVENRNVRLSIASSMPSLESNVIKLNDFLKEVRKFLCFLEISELDELKHQIKESVVQTAGANENLEISDLCTLLDAFFFSINQKTRSTIPNDSTMPVNVFLIKFKCFLLGMESPEFLDLQEKVQRKLDESDITEKILQLSDIQHAVQYLFFSVSH | not soluble
3 | MNAKAVKEVLKAHVGRAYAPYSGFPVVALVEAEGEVFLGVNVENASFPLSQCAERNAVAAMVLAGKRRLERVHVYSPKGPIPPCGGCRQVLMEFGGPEVEVVLHGPEEEVRTTLGALLPLAFRL | soluble
4 | MNAQEFKEKKTETTGAHHAQRLGIAAGMTVQEVGWDEDCDSTISEAIEDILGEELLDEETDEACDVVLLWWRSDDGDLVDGLVDSIRPLADNGRIWLLTPGAGKQGALDPGEISESAQLAGLVQTKAERLGAWQGSCLVQRGNKQ | not soluble
5 | MNCRGHETRQRIVRDFEVQPKAHIKLLANQQKHSDAGATIEDEYYVFIAESKIDGKKEVIQCCMGAARDFLELINHKGLPLFNPLVGDSHVNNRQEYDNTGSGNL | not soluble
6 | MNDDRATAFNALKNKTVCVQGDGNSRQFYHALVEILSNHSSAIPVNKNGNDFCNAPFAQCPQDTYYFDLVDKSDNLSVKLYWRWAPEFSDIECPMKVPSGFTPGSNYSFPSGPDTLSCDINIMDAGQWELFEKDANVTTAGYSQGVSNLSKCFSSDKSAKYFWIAAYALTPEQLQIHLPYNNTDVERINEVATQGLNSTACVLNGYDVTVNAFNDTKEATTDGIHYLGWINEQVVQLFFNAVTNSSAPTVPSSNVSVTSPNVQLGQVPNLNPSTTNSFLPVQTIVTVPSSSATSASSGLNFGGSSQGGGSGIPQL | not soluble
7 | MNDEEKPCIENILSAAEELEKLGYEPVIIADASLRHEIDDKEQFRKLLEEGKFQQVPSGTSADHFILKMAEEEDAKILSNDVFRDYKDEFQDINSRRIPYTFREDKILIGTSGKPKKVKNILQKICNEALEHHHHHH | not soluble
8 | MNDFNTAFANIDEKAIPNDEKGAANGVATLNSSGKLAQMPSASDVGALPITGGEMQGALKLKANQYGGSGPADEKYALDCQNSNIVNVNRILTADPAGSASEGWGFQREDDPDAYDVIWASNGTLYFTPGFKYNTPPYPANQRVLATTDNIALTNYLRQEYNKLKESEGTPTLNDIINGFGFCYNDSSNGAGLDGTYLTVSGMLDNKYRLQLLGQYNGSNWLAYRTRNGDEQSWNPWHKVLTDNINAAISARHQYTSSSYPQIYGNGILQLGGDSRNEYGVVLRSNGTDEANAFRPSVNAGTTGHLYLGVANQKWRAVFAQNGTIQTSDRNAKHDITDLDPEKITAFIMGLKPSSYVFNDADSGRTHWGLISQDIEELFPQLGMTSMDFAGFIKSPKTEDYYEDVPETVTDEETGEEKTVTRKELKTRTVEGEYIYSLRYDEFLEHHHHHH | soluble
